Molecular target: L-DOPA dioxygenase from Streptomyces sclerotialus (SsDDO) (Streptomyces sclerotialus)
Assay: crystal structure

- stoichiometry N: 2
Substance: L-DOPA dioxygenase from Streptomyces sclerotialus (SsDDO) (enzyme)

From publication PMC6930364
